In publication PMC7954794 (2021):

B1: S. cerevisiae Abp1 (full length; SH3 domain 535-592 mutated) / Hua2 (parent complex)
chain 1: MALEPIDYTTHSREIDAEYLKIVRGSDPDTTWLIISPNAKKEYEPESTGSSFHDFLQLFDETKVQYGLARVSPPGSDVEKIIIIGWCPDSAPLKTRASFAANFAAVANNLFKGYHVQVTARDEDDLDENELLMKISNAAGARYSIQTSSKQQGKASTPPVKKSFTPSKSPAPVSKKEPVKTPSPAPAAKISSRVNDNNDDDDWNEPELKERDFDQAPLKPNQSSYKPIGKIDLQKVIAEEKAKEDPRLVQKPTAAGSKIDPSSDIANLKNESKLKRDSEFNSFLGTTKPPSMTESSLKNDDDKVIKGFRNEKSPAQLWAERKAKQNSGNAETKAEAPKPEVPEDEPEGEPDVKDLKSKFEGLAASEKEEEEMENKFAPPPKKSEPTIISPKPFSKPQEPVKAEEAEQPKTDYKKIGNPLPGMHIEADNEEEPEENDDDWDDDEDEAAQPPLPSRNVASGAPVQKEEPEQEEIAPSLPSRNSIPAPKQEEAPEQAPEEEIEEEAEEAAPQLPSRSSAAPPPPPRRATPEKKPKENPWATAEYDYDAAEDNELTFVENDKIINIEFVDDDWWLGELEKDGSKGLFPSNYVSLGN
chain 2: MQQTKFGKMYLDHDSVVEYSEDEIVEADRITLGYKKRLSMIENQMRHLLEDFSLDVQQIEPILADLQKYYDAFLQLLQKRNKSLQCKRSTHQPVPSPMNSQTSTNAKVNLSGKLMKFQLNSVQKFDEENILRILQNKIEFEHYFQIDKGKKQKVLLLAVYQCLNGPTRLHKVLNIEGIIHNNSIRTILGKQVSSSKWTVFLYDVKLVLLAHRQDVPNLETSKMIVRYGDLFPCALYFKDHTAY

Variants of: B1
Assay: DHFR protein-fragment complementation in yeast (Abp1-DHFR F[1,2] x partner-DHFR F[3]), deep mutational scanning, second methotrexate selection vs reference; S. cerevisiae, DHFR-PCA selection in liquid with methotrexate at 30 C, two 72 h selections (the score uses the second); reference = the pre-selection culture

Row | Variant | screen value
1 | chain 1 MALEPIDYTTHSREIDAEYLKIVRGSDPDTTWLIISPNAKKEYEPESTGSSFHDFLQLFDETKVQYGLARVSPPGSDVEKIIIIGWCPDSAPLKTRASFAANFAAVANNLFKGYHVQVTARDEDDLDENELLMKISNAAGARYSIQTSSKQQGKASTPPVKKSFTPSKSPAPVSKKEPVKTPSPAPAAKISSRVNDNNDDDDWNEPELKERDFDQAPLKPNQSSYKPIGKIDLQKVIAEEKAKEDPRLVQKPTAAGSKIDPSSDIANLKNESKLKRDSEFNSFLGTTKPPSMTESSLKNDDDKVIKGFRNEKSPAQLWAERKAKQNSGNAETKAEAPKPEVPEDEPEGEPDVKDLKSKFEGLAASEKEEEEMENKFAPPPKKSEPTIISPKPFSKPQEPVKAEEAEQPKTDYKKIGNPLPGMHIEADNEEEPEENDDDWDDDEDEAAQPPLPSRNVASGAPVQKEEPEQEEIAPSLPSRNSIPAPKQEEAPEQAPEEEIEEEAEEAAPQLPSRSSAAPPPPPRRATPEKKPKENPWATAEYDYDAMEDNELTFVENDKIINIEFVDDDWWLGELEKDGSKGLFPSNYVSLGN [chain 1 A546M] | -0.41 DMS score: mean over two replicates of log2(f_test/f_ref + 0.5)/ln 2, minus the synonymous-codon median (not a log2 …
2 | chain 1 MALEPIDYTTHSREIDAEYLKIVRGSDPDTTWLIISPNAKKEYEPESTGSSFHDFLQLFDETKVQYGLARVSPPGSDVEKIIIIGWCPDSAPLKTRASFAANFAAVANNLFKGYHVQVTARDEDDLDENELLMKISNAAGARYSIQTSSKQQGKASTPPVKKSFTPSKSPAPVSKKEPVKTPSPAPAAKISSRVNDNNDDDDWNEPELKERDFDQAPLKPNQSSYKPIGKIDLQKVIAEEKAKEDPRLVQKPTAAGSKIDPSSDIANLKNESKLKRDSEFNSFLGTTKPPSMTESSLKNDDDKVIKGFRNEKSPAQLWAERKAKQNSGNAETKAEAPKPEVPEDEPEGEPDVKDLKSKFEGLAASEKEEEEMENKFAPPPKKSEPTIISPKPFSKPQEPVKAEEAEQPKTDYKKIGNPLPGMHIEADNEEEPEENDDDWDDDEDEAAQPPLPSRNVASGAPVQKEEPEQEEIAPSLPSRNSIPAPKQEEAPEQAPEEEIEEEAEEAAPQLPSRSSAAPPPPPRRATPEKKPKENPWATAEYDYDAAEDNELTFVENDKIINIHFVDDDWWLGELEKDGSKGLFPSNYVSLGN [chain 1 E563H] | -1.36 DMS score: mean over two replicates of log2(f_test/f_ref + 0.5)/ln 2, minus the synonymous-codon median (not a log2 …
3 | chain 1 MALEPIDYTTHSREIDAEYLKIVRGSDPDTTWLIISPNAKKEYEPESTGSSFHDFLQLFDETKVQYGLARVSPPGSDVEKIIIIGWCPDSAPLKTRASFAANFAAVANNLFKGYHVQVTARDEDDLDENELLMKISNAAGARYSIQTSSKQQGKASTPPVKKSFTPSKSPAPVSKKEPVKTPSPAPAAKISSRVNDNNDDDDWNEPELKERDFDQAPLKPNQSSYKPIGKIDLQKVIAEEKAKEDPRLVQKPTAAGSKIDPSSDIANLKNESKLKRDSEFNSFLGTTKPPSMTESSLKNDDDKVIKGFRNEKSPAQLWAERKAKQNSGNAETKAEAPKPEVPEDEPEGEPDVKDLKSKFEGLAASEKEEEEMENKFAPPPKKSEPTIISPKPFSKPQEPVKAEEAEQPKTDYKKIGNPLPGMHIEADNEEEPEENDDDWDDDEDEAAQPPLPSRNVASGAPVQKEEPEQEEIAPSLPSRNSIPAPKQEEAPEQAPEEEIEEEAEEAAPQLPSRSSAAPPPPPRRATPEKKPKENPWATAEYDYDAAEDNELTFVENDKIINIEFVDDDWWVGELEKDGSKGLFPSNYVSLGN [chain 1 L571V] | -0.465 DMS score: mean over two replicates of log2(f_test/f_ref + 0.5)/ln 2, minus the synonymous-codon median (not a log2 …

Other lines, results leading:

Row | screen value | Variant
4 | 0.556 DMS score: mean over two replicates of log2(f_test/f_ref + 0.5)/ln 2, minus the synonymous-codon median (not a log2 … | chain 1 MALEPIDYTTHSREIDAEYLKIVRGSDPDTTWLIISPNAKKEYEPESTGSSFHDFLQLFDETKVQYGLARVSPPGSDVEKIIIIGWCPDSAPLKTRASFAANFAAVANNLFKGYHVQVTARDEDDLDENELLMKISNAAGARYSIQTSSKQQGKASTPPVKKSFTPSKSPAPVSKKEPVKTPSPAPAAKISSRVNDNNDDDDWNEPELKERDFDQAPLKPNQSSYKPIGKIDLQKVIAEEKAKEDPRLVQKPTAAGSKIDPSSDIANLKNESKLKRDSEFNSFLGTTKPPSMTESSLKNDDDKVIKGFRNEKSPAQLWAERKAKQNSGNAETKAEAPKPEVPEDEPEGEPDVKDLKSKFEGLAASEKEEEEMENKFAPPPKKSEPTIISPKPFSKPQEPVKAEEAEQPKTDYKKIGNPLPGMHIEADNEEEPEENDDDWDDDEDEAAQPPLPSRNVASGAPVQKEEPEQEEIAPSLPSRNSIPAPKQEEAPEQAPEEEIEEEAEEAAPQLPSRSSAAPPPPPRRATPEKKPKENPWATAEYDYDAAEDNELTFVENDKIINIEFVDDDWWLGELEKDGTKGLFPSNYVSLGN [chain 1 S579T]
5 | -0.86 DMS score: mean over two replicates of log2(f_test/f_ref + 0.5)/ln 2, minus the synonymous-codon median (not a log2 … | chain 1 MALEPIDYTTHSREIDAEYLKIVRGSDPDTTWLIISPNAKKEYEPESTGSSFHDFLQLFDETKVQYGLARVSPPGSDVEKIIIIGWCPDSAPLKTRASFAANFAAVANNLFKGYHVQVTARDEDDLDENELLMKISNAAGARYSIQTSSKQQGKASTPPVKKSFTPSKSPAPVSKKEPVKTPSPAPAAKISSRVNDNNDDDDWNEPELKERDFDQAPLKPNQSSYKPIGKIDLQKVIAEEKAKEDPRLVQKPTAAGSKIDPSSDIANLKNESKLKRDSEFNSFLGTTKPPSMTESSLKNDDDKVIKGFRNEKSPAQLWAERKAKQNSGNAETKAEAPKPEVPEDEPEGEPDVKDLKSKFEGLAASEKEEEEMENKFAPPPKKSEPTIISPKPFSKPQEPVKAEEAEQPKTDYKKIGNPLPGMHIEADNEEEPEENDDDWDDDEDEAAQPPLPSRNVASGAPVQKEEPEQEEIAPSLPSRNSIPAPKQEEAPEQAPEEEIEEEAEEAAPQLPSRSSAAPPPPPRRATPEKKPKENPWATAEYDYDAAEDNELTFVENDKIINIEFVDDDWWTGELEKDGSKGLFPSNYVSLGN [chain 1 L571T]
